Experimental data published in US20020183271A1, “Methods of treatment involving human MDA-7” (priority 2000, published 2002).

Legend:
[1] = tested on: secretion of soluble MDA-7 protein; experiment: Inhibition of glycosylation and secretion of MDA-7 protein; format: cell-based
Source text: Two antibiotics, Tunicamycin and Brefeldin A, have been used to provide a more detailed characterization of the secretion of soluble MDA-7. N-linked glycosylation plays an important role in a protein's ultimate processing, whether it is sorted to a lysosomal pathway, or translocated to the cell surface or secreted. Using Tunicamycin, the N-linked glycosylation process in the […] can be inhibited, thus inhibiting protein secretion or other sugar-dependent sorting processes.

[2] = tested on: Human umbilical vein endothelial cells (HUVEC); experiment: Tube formation assay (endothelial differentiation), vectors and Suramin; format: cell-based; details: vectors 10,000 vp/cell; Suramin 50 μM; Matrigel
Description: Human umbilical vein endothelial cells (HUVECs; Clonetics) were seeded on 1% gelatin-coated plates and incubated at 37° C. for 24 hours. […] Cells exposed to medium alone served as negative controls while cells exposed to Suramin (50 μM) served as positive controls. After a 48-hour incubation period (37° C. in serum-containing medium), infected cells were harvested, counted, and added to Matrigel-coated 24-well plates in triplicate (1.2×10^5 cells per well). Twenty-four hours later, cells were fixed with 10% buffered formalin and examined for differentiation (tube formation) by using an Olympus IX-70 inverted bright-field microscope at 4× and 10× magnification. cl Example 1
Tube Formation Assay. Human umbilical vein endothelial cells (HUVECs; Clonetics) were seeded on 1% gelatin-coated plates and incubated at 37° C. for 24 hours. After incubation, cells were infected for 1 hour with Ad-luc or Ad-mda 7 at 10,000 vp/cell in serum-free medium. Cells exposed to medium alone served as negative controls while cells exposed to Suramin (50 μM) served as positive controls. After a 48-hour incubation period (37° C. in serum-containing medium), infected cells were harvested, counted, and added to Matrigel-coated 24-well plates in triplicate (1.2×10^5 cells per well). […]

[3] = tested on: T47D; experiment: Ad-mda7 growth inhibition, 3H-thymidine incorporation assay; format: cell-based, human; details: T47D cells; four days after treatment
Description: (§1) Cells were either plated at 500-2000 cells/well in 96-well format for Tritiated thymidine incoporation-Cell Proliferation Assay or plated at 10^5-10^6 cells/well in a 6 well plate for protein expression or Apoptosis assays or plated at 10^4 cells/well for Alamar-blue assay. […]
(§2) Growth inhibition of cells after treatment is measured by analysis of DNA-synthesis. Briefly, for the ^3H-thymidine incorporation assay cells will be plated at 200-5000 cell per well in a 96-well format and grown in DMEM/10% FBS in a 5% CO2 incubator at 37° C. overnight. The next day the media is aspirated and replace with […] DMEM/10% FBS containing the appropriate adenovirus at the appropriate MOI. Cells will be incubated with infecting media for 1 to 4 hrs and then diluted to […] total volume and grown overnight. Media is replaced with DMEM/10% FBS/mCi ^3H-thymidine and grown for 16 to 18 hrs. Stock solution of 100 uCi/mL of H3-thymidine (Amersham) is prepared by dilution into high glucose DMEM (GIBCO). ^3H-Thymidine was added to each well at a final concentration of 1 μCi/mL. The reaction is stopped 15 hours later by removal of the supernatant from recipient cells. […] The filter were dried and analyzed in Matrix 9600 (Packard) and cell proliferation using Viral Particles/cell against Tritiated Thymidine uptake counts were plotted.

[4] = tested on: MCF-7; experiment: as above; format: cell-based, human; details: MCF-7 cells; four days after treatment; tamoxifen 1 ng/ml
Description: as §1, §2

[5] = tested on: PBMC; experiment: PBMC proliferation (thymidine uptake); format: cell-based, human; details: 4 days of coculture; three donors
Source text: Some cytokines can also function as growth factors. Therefore the proliferative simulation function of MDA-7 was addressed using PBMC. IL-10 was included as a negative cytokine control.

[6] = tested on: PBMC; experiment: Secondary cytokine secretion from PBMC (ELISA); format: cell-based, human
Description: FIG. 24. Effect of MDA-7 and IL-10 on inflammatory cytokine secretion from PBMC. Two ml/well (2×10^6 cells/ml) PBMC were plated in a 24 well plate and cultured untreated or with indicated amounts of MDA-7 (B 2 ng/ml; D,F 20 ng/ml), 5 μg/ml LPS, 5 μg/ml PHA, 500 U/ml IL-10 (˜17 ng/ml; R & D Systems, Minneapolis, Minn.) or combination of IL-10 and MDA-7. Supernatants were harvested at 48 hours and analyzed for cytokine content by ELISA (Endogen, Corp) according to manufacturer's instructions. Data from one representative donor are reported. * Indicates values above standard curve.
FIG. 25. […] Human PBMC were treated with 5 μg/ml LPS, 500 U/ml IL-10, 5 ng/ml MDA-7 or combinations for 48 hours. An equal volume of an S column fraction not containing MDA-7 as determined by Western (an MDA-7 Neg Fraction) was used as a control for buffer/salt content. Supernatants were harvested at 48 hours and analyzed for cytokine content by ELISA (Endogen, Corp) according to manufacturer's instructions. Data from one representative donor are reported. * Indicates value greater than 500 pg/ml IL-1β. ** Actual values are 539 pg/ml IL-12 and 893 pg/ml GM-CSF. Data from one representative donor are reported.
Activation of PBMC: PBMC were isolated from the peripheral blood of normal healthy donors by centrifugation over Histopaque (Sigma, St. Louis, Mo.). Cells were cultured at a concentration of 1×10^6 cells/ml in RPMI-1640 based media supplemented with L-glutamine, Hepes, penicillin, streptomycin, and 10% human AB serum (Pelfreez, Brown Deer, Wis.) for 72 hr in the presence of PHA-P at 5 μg/ml or LPS 10 μg/ml (both from Sigma, St. Louis, Mo.). Four hours prior to harvest Brefeldin A (BFA, Sigma-Aldrich) was added at a final concentration of 10 μg/ml. The supernatants as well as cells were then harvested.
ELISA assays. The ELISA reaction to detect human MDA-7 was carried out in 96-well plates using standard techniques and an antibody pair selected for sentivity. Elisa assays for cytokines were perfomed in an identical manner, employing commercially available kits as designated in the figure legends.

[7] = tested on: H1299 cells; experiment: Soluble MDA-7 supernatant killing, trypan blue exclusion; format: cell-based, human; details: supernatants, 48 hours
Description: FIG. 11A. Soluble MDA-7 (sMDA7) kills tumor cells. […] All the supernatants used in this experiment were filtered through a 0.1 micron filter prior to challenge with H1299 cells. FIG. 11B. H1299 cells were challenged with soluble MDA-7 supernatant from four different stocks and percentage dead cells evaluated after 48 hours: 1) 293*NF: Non-filtered supernatant obtained from modified 293 cells (cells were grown in serum-free conditions); 2) 293*F: 0.1 micron filtered supernatant obtained from modified 293 cells; 3) 293F: 0.1 micron filtered supernatant obtained from regular 293 cells (FBS+); and 4) H1299F: 0.1 micron filtered supernatant obtained from H1299 cells. D0 is non-diluted material whereas D1:1; D1:5, D1:10 indicate the dilutions used.
The secreted form of MDA-7 (sMDA-7) was produced using various cell lines and evaluated for anti-tumor activity. Soluble MDA-7 was analyzed for its anti-proliferative effects on H1299 cells. Briefly, H1299 cells were plated at cell density of 10^3 cells/chamber in Nunc chamber slides. 24 hours later, the cells were challenged with supernatants obtained from H1299 cells transduced with either Ad-mda-7 or Ad-luc (at 1000 vp/cell infection). Ad-mda7 and Ad-luc viruses were also used as additional controls. […]

[8] = tested on: HUVEC cells; experiment: Tube formation with purified MDA-7 protein; format: cell-based, human
Description: HUVEC cells were administered increasing amounts of MDA-7 protein purified from 293-mda7 cells. Doses that were evaluated ranged from 0.5-100 ng/ml. The ED50 of MDA-7 ranged from 5-50 ng/ml. Endothelial differentiation in the cells was inhibited by MDA-7 protein, but not control cells, based on tube formation.
HUVEC cells were given varying doses of MDA-7 protein purified from 293-mda7 cells (lots 1-6) or from baculovirus exoressing mda-7. A positive control of Ad-mda7 and a negative control of Ad-luc were included in most assays.

[9] = 500 U/ml IL-10, 5 ng/ml MDA-7, 48 hours
[10] = 500 U/ml IL-10 added to PBMC stimulated by MDA-7

For `C[C@H]1CCC/C=C/[C@@H]2C[C@H](O)C[C@H]2[C@H](O)/C=C/C(=O)O1` [Brefeldin A], the “secretion of soluble MDA-7 protein” value [1] was “effectively inhibit the secretion of soluble MDA-7 protein”.

`Cc1ccc(C(=O)Nc2ccc(S(=O)(=O)O)c3cc(S(=O)(=O)O)cc(S(=O)(=O)O)c23)cc1NC(=O)c1cccc(NC(=O)Nc2cccc(C(=O)Nc3cc(C(=O)Nc4ccc(S(=O)(=O)O)c5cc(S(=O)(=O)O)cc(S(=O)(=O)O)c45)ccc3C)c2)c1` [Suramin] was tested, and the endothelial tube formation [2] was “known inhibitor of tube formation”.

With `CC/C(=C(\c1ccccc1)c1ccc(OCCN(C)C)cc1)c1ccccc1` [tamoxifen] the “DNA replication (tritiated thymidine assay)” value [3] was “minimal effect” and the “DNA replication (tritiated thymidine assay)” value [4] was “little effect”.

For Tunicamycin, the “secretion of soluble MDA-7 protein” value [1] was “effectively inhibit the secretion of soluble MDA-7 protein”.

B1: IL-10: Human recombinant IL-10 purchased from R&D Systems (protein, UniProt P22301 19-178, looked up)
Interleukin-10: SPGQGTQSENSCTHFPGNLPNMLRDLRDAFSRVKTFFQMKDQLDNLLLKESLLEDFKGYLGCQALSEMIQFYLEEVMPQAENQDPDIKAHVNSLGENLKTLRLRLRRCHRFLPCENKSKAVEQVKNAFNKLQEKGIYKAMSEFDIFINYIEAYMTMKIRN
B1 was tested, and the “proliferation (thymidine uptake)” value [5] was “did not induce increased thymidine uptake”, the “effect of IL-10 on GM-CSF production” value [6, 9] was “partially inhibited” and the “effect of IL-10 on IL-1β production” value [6, 9] was “partially inhibited”. For the same molecule, the “effect of IL-10 on IL-12 production” value [6, 9] was “completely inhibited”, the “effect of IL-10 on IFNγ induction by MDA-7” value [6, 10] was “completely abrogated” and the “effect of IL-10 on IL-6 induction by MDA-7” value [6, 10] was “partially blocked”. For the same molecule, the “effect of IL-10 on TNFα induction by MDA-7” value [6, 10] was “completely abrogated”.

B2: soluble MDA-7: secreted form of MDA-7 in filtered supernatants of cells transduced with Ad-mda7 (protein, UniProt Q13007 52-206, looked up)
Interleukin-24: QEFHFGPCQVKGVVPQKLWEAFWAVKDTMQAQDNITSARLLQQEVLQNVSDAESCYLVHTLLEFYLKTVFKNYHNRTVEVRTLKSFSTLANNFVLIVSQLQPSQENEMFSIRDSAHRRFLLFRRAFKQLDVEAALTKALGEVDILLTWMQKFYKL
B2 was tested, and the “killing of H1299 cells” value [7] was “concentration-dependent bystander killing effect” and the “killing of H1299 cells” value ([7]; listed as soluble MDA-7 protein) was “showed H1299 killing”.

B3: recombinant MDA-7 expressed in E. coli and S. cerevisiae: recombinant MDA-7 expressed in E. coli and S. cerevisiae, used in preliminary experiments (protein, UniProt Q13007 52-206, looked up)
Interleukin-24: B2 Interleukin-24
For B3, the “proliferation (thymidine uptake)” value [5] was “did not show a proliferative response” and the “secondary cytokine production, preliminary experiments” value ([6]; very high doses (μg/ml quantities) required) was “robust production of IL-6, TNFα, and IFNγ, very low levels of GM-CSF and IL-10, and no IL-2, IL-4, and IL-5”.

B4: MDA-7: human MDA-7 protein secreted by and purified from stably transfected 293 cells (293-mda7) (protein)
chain: B2 Interleukin-24
For B4, the “proliferation (thymidine uptake)” value [5] was “did not induce significant proliferation”, the “lowest doses inhibiting tube formation” value ([8]; MDA-7 protein from 293-mda7 cells (lots 1-6) or baculovirus) was 0.5 to 10 ng/mL and the “ED50 (inhibition of endothelial differentiation, tube formation)” value ([8]; MDA-7 protein purified from 293-mda7 cells, doses 0.5-100 ng/ml) was 5 to 50 ng/mL. For the same molecule, the IL-6 secretion ([6]; 2 ng/ml of MDA-7, above the standard curve of the ELISA kit) was “greater than 800 pg/ml”, the “IL-1β, IL-12 and GM-CSF secretion” value ([6]; 5 ng/ml MDA-7, 48 hours) was “induces IL-1β, IL-12 and GM-CSF secretion” and the “MDA-7 concentration stimulating maximal IL-6 secretion” value ([6]; 48 hours, ELISA) was 200 pg/mL. The “dose required to achieve optimal levels of TNFα and IFNγ secretion” value ([6]; 48 hours, ELISA) was 2 ng/mL and the “induction of TNFα compared with LPS” value ([6]; LPS 5 μg/ml positive control) was “more potent inducer than the positive stimulation control LPS”.
